Experimental data published in PMC7173111.

Biological target: HBc-YFP fusion protein (Hepatitis B virus) (UniProt P03146)
Experiment: FRET or BRET

UniProt P03146, sequence (P03146 whole entry, the tested form may be a part): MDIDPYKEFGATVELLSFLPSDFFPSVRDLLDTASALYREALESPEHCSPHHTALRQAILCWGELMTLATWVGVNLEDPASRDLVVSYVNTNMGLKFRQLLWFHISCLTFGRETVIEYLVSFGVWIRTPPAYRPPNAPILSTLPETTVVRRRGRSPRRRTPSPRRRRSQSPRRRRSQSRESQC

A3G-CFP fusion protein (from UniProt Q9HC16 1-384) (natural protein)
FRET efficiency (E EFF, %): 18.5%
FRET ratio (FR): 1.68
